# Key:
# [1] = target: human MCSP on tumor cells (human, UniProt Q6UVK1 30-2322); assay: cell-based or functional assay
# [2] = target: human CD3 on T cells (human, UniProt P07766 23-126); assay: cell-based or functional assay
# Chain of human CD3 on T cells (P07766 23-126 limits assumed): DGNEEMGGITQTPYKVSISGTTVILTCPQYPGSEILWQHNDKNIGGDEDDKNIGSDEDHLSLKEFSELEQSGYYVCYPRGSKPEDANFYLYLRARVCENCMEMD
# Chain of human MCSP on tumor cells (Q6UVK1 30-2322): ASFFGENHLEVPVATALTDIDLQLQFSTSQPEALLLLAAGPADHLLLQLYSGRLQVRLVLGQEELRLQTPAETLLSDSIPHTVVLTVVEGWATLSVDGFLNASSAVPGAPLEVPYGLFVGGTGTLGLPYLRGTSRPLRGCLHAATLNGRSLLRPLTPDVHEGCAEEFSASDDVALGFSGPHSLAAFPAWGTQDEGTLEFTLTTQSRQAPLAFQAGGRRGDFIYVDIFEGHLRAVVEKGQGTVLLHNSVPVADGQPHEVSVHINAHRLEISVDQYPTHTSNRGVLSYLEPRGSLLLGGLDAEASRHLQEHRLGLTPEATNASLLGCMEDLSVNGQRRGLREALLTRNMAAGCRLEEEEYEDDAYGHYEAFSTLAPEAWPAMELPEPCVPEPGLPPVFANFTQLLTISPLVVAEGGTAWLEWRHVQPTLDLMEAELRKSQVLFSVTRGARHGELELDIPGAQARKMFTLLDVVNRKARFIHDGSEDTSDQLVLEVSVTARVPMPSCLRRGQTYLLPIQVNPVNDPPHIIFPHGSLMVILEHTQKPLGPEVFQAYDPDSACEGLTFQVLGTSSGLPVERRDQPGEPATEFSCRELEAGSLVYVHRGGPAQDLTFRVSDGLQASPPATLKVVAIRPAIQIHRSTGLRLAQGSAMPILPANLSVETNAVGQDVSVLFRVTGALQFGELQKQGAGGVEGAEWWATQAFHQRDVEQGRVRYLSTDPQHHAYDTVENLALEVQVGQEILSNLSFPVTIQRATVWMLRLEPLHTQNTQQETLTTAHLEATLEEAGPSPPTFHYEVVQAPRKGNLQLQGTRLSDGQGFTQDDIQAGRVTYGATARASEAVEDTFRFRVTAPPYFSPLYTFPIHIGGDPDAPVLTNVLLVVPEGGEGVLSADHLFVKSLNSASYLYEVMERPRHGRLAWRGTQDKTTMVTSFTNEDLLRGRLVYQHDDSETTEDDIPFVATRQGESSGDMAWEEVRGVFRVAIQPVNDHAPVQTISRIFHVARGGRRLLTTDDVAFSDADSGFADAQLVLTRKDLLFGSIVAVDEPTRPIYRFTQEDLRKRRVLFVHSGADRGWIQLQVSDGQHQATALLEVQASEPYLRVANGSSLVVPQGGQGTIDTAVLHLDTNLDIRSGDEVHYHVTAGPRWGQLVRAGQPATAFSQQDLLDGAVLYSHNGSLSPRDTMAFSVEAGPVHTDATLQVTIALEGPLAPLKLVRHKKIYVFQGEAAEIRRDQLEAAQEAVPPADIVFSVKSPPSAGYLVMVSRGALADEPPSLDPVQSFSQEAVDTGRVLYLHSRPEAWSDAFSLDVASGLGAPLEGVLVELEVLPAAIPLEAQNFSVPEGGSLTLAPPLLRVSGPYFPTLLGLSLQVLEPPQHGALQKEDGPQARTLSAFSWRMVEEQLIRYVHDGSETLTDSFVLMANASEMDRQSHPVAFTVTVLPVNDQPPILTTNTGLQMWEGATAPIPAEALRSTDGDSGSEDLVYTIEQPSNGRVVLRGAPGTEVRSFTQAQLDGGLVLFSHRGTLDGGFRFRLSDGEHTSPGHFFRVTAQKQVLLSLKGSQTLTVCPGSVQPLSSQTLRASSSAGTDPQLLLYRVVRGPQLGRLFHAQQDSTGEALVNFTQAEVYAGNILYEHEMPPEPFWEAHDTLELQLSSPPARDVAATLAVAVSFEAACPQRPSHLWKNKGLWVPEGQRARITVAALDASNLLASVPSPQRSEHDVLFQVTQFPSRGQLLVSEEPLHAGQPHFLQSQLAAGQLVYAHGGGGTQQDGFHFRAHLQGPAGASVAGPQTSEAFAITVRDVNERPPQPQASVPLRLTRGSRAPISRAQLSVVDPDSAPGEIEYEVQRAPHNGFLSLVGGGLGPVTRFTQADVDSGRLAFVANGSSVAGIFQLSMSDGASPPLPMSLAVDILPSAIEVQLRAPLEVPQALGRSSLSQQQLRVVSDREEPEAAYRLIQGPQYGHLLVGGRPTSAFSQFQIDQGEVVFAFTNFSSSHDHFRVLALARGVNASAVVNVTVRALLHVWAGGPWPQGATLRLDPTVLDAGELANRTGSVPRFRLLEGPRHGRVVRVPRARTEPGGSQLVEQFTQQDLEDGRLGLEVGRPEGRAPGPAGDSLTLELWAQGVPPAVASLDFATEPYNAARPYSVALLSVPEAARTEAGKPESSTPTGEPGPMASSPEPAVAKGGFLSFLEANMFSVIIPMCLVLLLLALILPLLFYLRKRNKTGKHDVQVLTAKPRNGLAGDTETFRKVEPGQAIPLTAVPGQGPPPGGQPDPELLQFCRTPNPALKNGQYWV
binder,measurement,setting,value
(scFv)2 (antiMCSP/anti huCD3e) (bispecific antibody) scFv: DIVLTQSPSSLSASLGDRVTISCSASQGIRNYLNWYQQRPDGTVKLLIYYTSSLHSGVPSRFSGSGSGTDYSLTISNLEPEDIATYYCQQYSKLPWTFGGGTKLEIKGGGGSGGGGSGGGGSEVQLQESGPGLVKPSQSLSLTCSVTGYSITSGYYWNWIRQFPGNKLEWMGYITYDGSNNYNPSLKNRISITRDTSKNQFFLKLNSVTTEDTATYYCADFDYWGQGTTLTVSSGGGGSEVQLVESGGGLVQPGGSLRLSCAASGYSFTGYTMNWVRQAPGKGLEWVALINPYKGVSTYNQKFKDRFTISVDKSKNTAYLQMNSLRAEDTAVYYCARSGYYGDSDWYFDVWGQGTLVTVSSVEGGSGGSGGSGGSGGVDDIQMTQSPSSLSASVGDRVTITCRASQDIRNYLNWYQQKPGKAPKLLIYYTSRLESGVPSRFSGSGSGTDYTLTISSLQPEDFATYYCQQGNTLPWTFGQGTKVEIKHHHHHH,"EC50 of killing (LDH release) of MV-3 cells, human PBMCs, E:T 10:1, ~24 h",[1],0.0571 nM
same,"EC50 of killing (LDH release) of MV-3 cells, human PBMCs, E:T 10:1, ~24 h",[2],0.0571 nM

# From patent US20160130347A1 (Hoffmann-La Roche, published 2016)
